The numbers were not newly measured in article PMC6615252, “The binding affinity of PTPN13’s tandem PDZ2/3 domain is allosterically modulated” (BMC Molecular and Cell Biology, 2019), which cites them from elsewhere.

For this series, the system named is PDZ4 domain of PTPN13. The conditions noted are these: ref [39]; cited from earlier work. The text has this: This might also explain as to why the observed in vitro affinities of PTPN13 for APC and PRK2 are low in comparison to known examples for PDZ-ligand interactions.

B1: PARG1: RhoGAP protein PARG1 (protein, UniProt Q52LW3 1-1261, looked up)
Rho GTPase-activating protein …: MIAHKQKKTKKKRAWASGQLSTDITTSEMGLKSLSSNSIFDPDYIKELVNDIRKFSHMLLYLKEAIFSDCFKEVIHIRLEELLRVLKSIMNKHQNLNSVDLQNAAEMLTAKVKAVNFTEVNEENKNDLFQEVFSSIETLAFTFGNILTNFLMGDVGNDSLLRLPVSRETKSFENVSVESVDSSSEKGNFSPLELDNVLLKNTDSIELALSYAKTWSKYTKNIVSWVEKKLNLELESTRNMVKLAEATRTNIGIQEFMPLQSLFTNALLNDIESSHLLQQTIAALQANKFVQPLLGRKNEMEKQRKEIKELWKQEQNKMLEAENALKKAKLLCMQRQDEYEKAKSSMFRAEEEHLSSSGGLAKNLNKQLEKKRRLEEEALQKVEEANELYKVCVTNVEERRNDLENTKREILAQLRTLVFQCDLTLKAVTVNLFHMQHLQAASLADSLQSLCDSAKLYDPGQEYSEFVKATNSTEEEKVDGNVNKHLNSSQPSGFGPANSLEDVVRLPDSSNKIEEDRCSNSADITGPSFIRSWTFGMFSDSESTGGSSESRSLDSESISPGDFHRKLPRTPSSGTMSSADDLDEREPPSPSETGPNSLGTFKKTLMSKAALTHKFRKLRSPTKCRDCEGIVVFQGVECEECLLVCHRKCLENLVIICGHQKLPGKIHLFGAEFTQVAKKEPDGIPFILKICASEIENRALCLQGIYRVCGNKIKTEKLCQALENGMHLVDISEFSSHDICDVLKLYLRQLPEPFILFRLYKEFIDLAKEIQHVNEEQETKKNSLEDKKWPNMCIEINRILLKSKDLLRQLPASNFNSLHFLIVHLKRVVDHAEENKMNSKNLGVIFGPSLIRPRPTTAPITISSLAEYSNQARLVEFLITYSQKIFDGSLQPQDVMCSIGVVDQGCFPKPLLSPEERDIERSMKSLFFSSKEDIHTSESESKIFERATSFEESERKQNALGKCDACLSDKAQLLLDQEAESASQKIEDGKTPKPLSLKSDRSTNNVERHTPRTKIRPVSLPVDRLLLASPPNERNGRNMGNVNLDKFCKNPAFEGVNRKDAATTVCSKFNGFDQQTLQKIQDKQYEQNSLTAKTTMIMPSALQEKGVTTSLQISGDHSINATQPSKPYAEPVRSVREASERRSSDSYPLAPVRAPRTLQPQHWTTFYKPHAPIISIRGNEEKPASPSAAVPPGTDHDPHGLVVKSMPDPDKASACPGQATGQPKEDSEELGLPDVNPMCQRPRLKRMQQFEDLEGEIPQFV
Turning to B1, the “binding to PDZ4 domain” value was “binds”.
